Biological target: GST-AP-2alpha (Homo sapiens, UniProt P05549 1-437)
Test: competition

Chain of GST-AP-2alpha (P05549 whole entry): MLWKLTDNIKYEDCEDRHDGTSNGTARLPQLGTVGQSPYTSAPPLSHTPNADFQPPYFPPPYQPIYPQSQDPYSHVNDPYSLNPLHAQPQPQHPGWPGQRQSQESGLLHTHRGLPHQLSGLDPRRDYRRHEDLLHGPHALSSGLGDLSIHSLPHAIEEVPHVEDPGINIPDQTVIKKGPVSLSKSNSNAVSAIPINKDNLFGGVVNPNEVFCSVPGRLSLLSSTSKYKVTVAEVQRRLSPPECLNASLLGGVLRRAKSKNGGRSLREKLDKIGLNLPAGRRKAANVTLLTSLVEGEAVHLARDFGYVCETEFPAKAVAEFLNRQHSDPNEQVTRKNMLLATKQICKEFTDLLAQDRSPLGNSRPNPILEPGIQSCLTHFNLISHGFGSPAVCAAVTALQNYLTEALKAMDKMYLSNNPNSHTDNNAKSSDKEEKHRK

B1: O58 (dsDNA)
DNA 1: GATTGTCCCTACACTCGCCTCAGGCGATCATCGGAATACACGATGCTTGG
DNA 2: CCAAGCATCGTGTATTCCGATGATCGCCTGAGGCGAGTGTAGGGACAATC
- binding result: binds

— PMC1110745
